One block for each binder: values may come before it. Where no end group is shown, it is not given here.
Assays:
Details in all cases: both partners purified
[1] = molecular target: T1, Full-length human Gαi3, untagged (NMR sample) (human, UniProt P08754 1-354); assay: NMR titration; 1H–15N TROSY and HNCO of 32 μM 2H,13C,15N-Gαi3 titrated with GIV peptide 1,671–1,696 (molar ratios 1:0 to 1:5); 30 °C; 10 mM HEPES pH 7.0, 10 mM MgCl2, 5 mM DTT, GDP; up to 3% DMSO
T1 construct: Uniformly 2H,13C,15N labelled for NMR; also called Gαi3-GDP; 2H,13C,15N-Gαi3; source: E. coli BL21 Rosetta, pET24d(+), purified (His-Trap, tag cleavage, GST-Trap, Superdex 200); not shown: His tag, N-terminal, cleaved

[2] = molecular target: T2, Human His-Gαi3 N256A (human, UniProt P08754 1-354, N256 mutated to A); assay: fluorescence polarisation; fluorescein-labelled peptide 0.025 μM, G protein 0–8 μM; room temperature; 50 mM Tris-HCl pH 7.4, 100 mM NaCl, 0.4% NP-40, 10 mM MgCl2, 5 mM EDTA, 2 mM DTT, 30 μM GDP; one site binding hyperbola
T2 construct: Gαi3, human, UniProt P08754, full length; also called N256 mutated to A; source: E. coli, pET24d(+), purified as uncleaved His-tagged protein (HisPur Cobalt Resin); not shown: His tag, N-terminal, kept

[3] = molecular target: T3, Human His-Gαi3 S252A (human, UniProt P08754 1-354, S252 mutated to A); assay: as above
T3 construct: Gαi3, human, UniProt P08754, full length; also called S252 mutated to A; source: E. coli, pET24d(+), purified as uncleaved His-tagged protein (HisPur Cobalt Resin); not shown: His tag, N-terminal, kept

[4] = molecular target: T1, Full-length human Gαi3, untagged (NMR …); assay: as above
[5] = molecular target: T4, Human His-Gαi3 ΔC9 (lacking the last nine residues) (human, UniProt P08754 1-345); assay: as above
T4 construct: Gαi3, human, UniProt P08754, lacking the last nine residues; source: E. coli, pET24d(+), purified as uncleaved His-tagged protein (HisPur Cobalt Resin); not shown: His tag, N-terminal, kept

[6] = molecular target: T5, Human His-Gαi3 WT (human, UniProt P08754 1-354); assay: as above
T5 construct: Gαi3, human, UniProt P08754, full length; same plasmid as for the NMR studies; also called His-tagged Gαi3; tagged protein; source: E. coli, pET24d(+), purified as uncleaved His-tagged protein (HisPur Cobalt Resin); not shown: His tag, N-terminal, kept

[7] = molecular target: T2, Human His-Gαi3 N256A; assay: pull-down; 10 μg GST-GIV or GST-DAPLE on glutathione agarose beads (~1.25 μM); His-Gαi3 WT or mutants ~1 μM in solution; 4 h, 4 °C; 50 mM Tris-HCl pH 7.4, 100 mM NaCl, 0.4% NP-40, 10 mM MgCl2, 5 mM EDTA, 2 mM DTT, 30 μM GDP; Coomassie blue
[8] = molecular target: T3, Human His-Gαi3 S252A; assay: as above
[9] = molecular target: T4, Human His-Gαi3 ΔC9 (lacking the last …); assay: as above
[10] = molecular target: T5, Human His-Gαi3 WT; assay: as above
[11] = molecular target: T6, Human His-Gαi3 W211A (human, UniProt P08754 1-354, W211A); assay: fluorescence polarisation; fluorescein-labelled peptide 0.025 μM, G protein 0–8 μM; room temperature; 50 mM Tris-HCl pH 7.4, 100 mM NaCl, 0.4% NP-40, 10 mM MgCl2, 5 mM EDTA, 2 mM DTT, 30 μM GDP; one site binding hyperbola
T6 construct: Gαi3, human, UniProt P08754, full length; source: E. coli, pET24d(+), purified as uncleaved His-tagged protein (HisPur Cobalt Resin); not shown: His tag, N-terminal, kept

[12] = molecular target: T7, His-tagged rat Gαi3 (rat, UniProt P08753 1-354); assay: pull-down; as a1 but His-Gαi3 reloaded with GDP (Gαi3-[GDP]) and buffer supplemented with 100 μM GDP
T7 construct: Same protein in three nucleotide states (nucleotide-free, GDP, GDP/AlF4−); the states are told apart by the assays a1-a3; also called His-Gαi3; Gαi3-[GDP]; source: E. coli BL21(DE3), pET28b, purified (Superdex S75); nucleotide-depleted and reloaded or not with GDP or GDP/AlF4−

[13] = molecular target: T1, Full-length human Gαi3, untagged (NMR …); assay: NMR titration; 1H–15N TROSY and HNCO of 100 μM 2H,13C,15N-Gαi3 free and with a twofold molar excess of His-GIV-CT; 30 °C; 10 mM HEPES pH 7.0, 10 mM MgCl2, 5 mM DTT, threefold molar excess of GDP

T4 sequence (P08754 1-345, stated change not applied): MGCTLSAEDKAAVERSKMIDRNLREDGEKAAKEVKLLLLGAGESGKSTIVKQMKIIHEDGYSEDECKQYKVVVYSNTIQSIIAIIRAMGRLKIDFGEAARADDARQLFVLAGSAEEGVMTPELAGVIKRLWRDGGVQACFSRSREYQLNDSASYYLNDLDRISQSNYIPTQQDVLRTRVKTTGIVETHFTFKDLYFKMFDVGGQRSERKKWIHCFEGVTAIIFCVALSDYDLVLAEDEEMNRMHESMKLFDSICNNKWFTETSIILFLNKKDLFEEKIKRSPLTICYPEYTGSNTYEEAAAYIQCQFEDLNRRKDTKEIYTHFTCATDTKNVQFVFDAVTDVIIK
T2 sequence (P08754 whole entry N256A): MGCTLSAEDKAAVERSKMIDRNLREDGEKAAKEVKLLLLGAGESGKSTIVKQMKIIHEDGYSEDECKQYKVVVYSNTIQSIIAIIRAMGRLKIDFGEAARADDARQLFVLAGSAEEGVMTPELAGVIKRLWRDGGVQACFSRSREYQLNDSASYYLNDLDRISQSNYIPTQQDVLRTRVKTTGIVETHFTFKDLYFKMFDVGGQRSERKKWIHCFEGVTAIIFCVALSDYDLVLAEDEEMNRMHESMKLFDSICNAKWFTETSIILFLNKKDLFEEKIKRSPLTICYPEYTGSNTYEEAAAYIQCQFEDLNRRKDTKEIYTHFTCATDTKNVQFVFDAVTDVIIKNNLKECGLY
T3 sequence (P08754 whole entry S252A): as the sequence (P08754 whole entry N256A) above, with S252A, A256N counted along it
T1 sequence (P08754 whole entry): as the sequence (P08754 whole entry N256A) above, with A256N counted along it
T5 sequence (P08754 whole entry): as the sequence (P08754 whole entry N256A) above, with A256N counted along it
T7 sequence (P08753 whole entry): as the sequence (P08754 whole entry N256A) above, with P121S, S165T, D193E, A256N, E261D, I319V counted along it
T6 sequence (P08754 whole entry W211A): as the sequence (P08754 whole entry N256A) above, with W211A, A256N counted along it

B1: GIV peptide, amino acids 1,671–1,696 (GIVpept) (peptide)
peptide: KTGSPGSEVVTLQQFLEESNKLTSVQ
notes: GIV (Girdin), human, residues 1,671–1,696; numbers on UniProt Q3V6T2-3; Made on p-methylbenzhydrylamine resin; also called GIV fragment 1,671–1,696; source: synthetic peptide
- binding result [1]: binds

B3: GST-DAPLE (1,650–1,745) (domain or fragment, human, UniProt Q9P219 1650-1745, looked up)
chain: GTAPPYVGVRPCSASPSSEMVTLEEFLEESNRSSPTHDTPSCRDDLLSDYFRKASDPPAIGGQPGPPAKKEGAKMPTNFVAPTVKMAAPTSEGRPL
notes: DAPLE (dishevelled-associating protein with high frequency of leucines), human, residues 1,650–1,745, cloned from Kazusa's clone fh14721 (KIAA1509)
- binding result [7]: binds
- binding result [8]: binds
- binding result [9]: binds
- binding result [10]: binds

B4: Fluorescein-labelled RGS12 GoLoco peptide (residues 1,185–1,221) (peptide)
peptide: {5,6‑carboxyfluorescein}-DEAEEFFELISKAQSNRADDQRGLLRKEDLVLPEFLR
notes: RGS12, GoLoco motif, residues 1,185–1,221; 'human' stands at the head of the list 'human GIV ..., DAPLE ... or RGS12'; read as applying to all three; also called GoLoco motif of RGS12; RGS12 GoLoco motif; source: synthetic peptide
- binding result [11]: binds
- binding result [6]: binds

Other lines, results leading:

- binding result [2]: binds
- binding result [3]: binds
- binding result [4]: binds
- binding result [5]: binds
- binding result [6]: binds
B2: Fluorescein-labelled GIV peptide (residues 1,671–1,701) (peptide)
peptide: {5,6‑carboxyfluorescein}-KTGSPGSEVVTLQQFLEESNKLTSVQIKSSS
notes: numbers on UniProt Q3V6T2-3; also called GBA motif of GIV; GEF motif of GIV; source: synthetic peptide

- binding result [7]: binds
- binding result [8]: binds
- binding result [9]: binds
- binding result [10]: binds
- binding result [12]: binds
B5: GST-GIV (residues 1,671–1,755, containing its GBA motif) (domain or fragment, human, UniProt Q3V6T2-3 1671-1755, looked up)
chain: KTGSPGSEVVTLQQFLEESNKLTSVQIKSSSQENLLDEVMKSLSVSSDFLGKDKPVSCGLARSVSGKTPGDFYDRRTTKPEFLRP
notes: Girdin), human, residues 1,671–1,755

- binding result [13]: binds
B6: His-tagged human GIV residues 1,660–1,870 (GIV-CT) (domain or fragment, UniProt Q3V6T2-3 1660-1870, looked up)
chain: SETLESRHHKIKTGSPGSEVVTLQQFLEESNKLTSVQIKSSSQENLLDEVMKSLSVSSDFLGKDKPVSCGLARSVSGKTPGDFYDRRTTKPEFLRPGPRKTEDTYFISSAGKPTPGTQGKIKLVKESSLSRQSKDSNPYATLPRASSVISTAEGTTRRTSIHDFLTKDSRLPISVDSPPAAADSNTTAASNVDKVQESRNSKSRSREQQSS
notes: MALDI mass consistent with the tagged fragment lacking the initial methionine; source: E. coli BL21(DE3), pET28b, purified (Co2+ and Ni2+ columns, Superdex 200); not shown: His tag, N-terminal, kept
